Assay [1] deals with T1, Latent Activin A (human, UniProt P08476 21-426, limits assumed).
T1 construct: also called INHBA latent
T1 sequence: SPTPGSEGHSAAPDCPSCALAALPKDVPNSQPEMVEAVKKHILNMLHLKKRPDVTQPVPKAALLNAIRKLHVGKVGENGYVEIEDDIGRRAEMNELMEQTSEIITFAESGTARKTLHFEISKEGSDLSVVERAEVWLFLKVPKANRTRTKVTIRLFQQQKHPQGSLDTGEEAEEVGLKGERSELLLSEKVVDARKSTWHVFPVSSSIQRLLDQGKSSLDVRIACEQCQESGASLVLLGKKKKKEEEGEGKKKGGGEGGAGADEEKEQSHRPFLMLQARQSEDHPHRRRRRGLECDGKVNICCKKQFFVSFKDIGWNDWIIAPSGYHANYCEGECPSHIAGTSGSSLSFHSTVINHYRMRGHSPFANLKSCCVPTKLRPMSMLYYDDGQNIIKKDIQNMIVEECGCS
The experiment in a line: ELISA, coated antigen, OD450. Here is the method:
(§1) Antibodies were re-expressed in 40 mL cultures of Expi293 cells and purified using protein G magnetic sepharose beads (Cytiva, Marlborough, MA) to provide larger quantities for secondary screening. Secondary screening included dose responses in both functional assays described above (SMAD nuclear localization and fibroblast activations assays) as well as in binding assays to the same antigens listed in Table 3. Plates were coated with 25 μL of 3 μg/mL antigen in 384-well Maxisorp plates overnight at 4° C. with agitation. The next day, the samples in the plates were blocked with 70 μL blocking buffer (PBS+1% BSA+0.1% Tween-20) for 2 hours at room temperature. Plates were then washed three times with 100 μL of wash buffer (PBS+0.1% Tween-20). Primary antibodies in Expi293 expression medium were diluted 1:3 in blocking buffer, 25 μL added per well, and the plates were incubated for an hour at room temperature with agitation. Plates were then washed three times and 25 μL of secondary antibody (goat anti-Human IgG, HRP conjugated; Jackson Immunoresearch) diluted 1:5000 in blocking buffer was added for 30 minutes at room temperature. The wells in the plates were washed six times with wash buffer and TMB substrate was added followed by 1 M H3PO4.

Assay [2] has as its target T2, Inhibin A (Homo sapiens (Human), UniProt P05111 233-366; P08476 311-426).
T2 sequence 1: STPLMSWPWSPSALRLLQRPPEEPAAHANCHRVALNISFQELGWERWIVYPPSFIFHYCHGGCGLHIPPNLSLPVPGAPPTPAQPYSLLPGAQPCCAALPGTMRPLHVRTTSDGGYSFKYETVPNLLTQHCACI
T2 sequence 2: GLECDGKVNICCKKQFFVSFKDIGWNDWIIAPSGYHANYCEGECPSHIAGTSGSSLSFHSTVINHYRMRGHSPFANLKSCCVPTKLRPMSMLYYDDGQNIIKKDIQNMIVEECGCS
The experiment in a line: ELISA, coated antigen, OD450. How it is done: as §1

For assay [3], the target named is T3, Mature Activin A (human, UniProt P08476 311-426).
T3 construct: also called active Activin A; INHBA mature
T3 sequence: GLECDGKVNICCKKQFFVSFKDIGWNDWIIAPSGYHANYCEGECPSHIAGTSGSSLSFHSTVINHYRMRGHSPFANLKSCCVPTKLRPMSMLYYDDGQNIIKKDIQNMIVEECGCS
The experiment in a line: ELISA, coated antigen, OD450. Here is the method: as §1

Assay [4] addresses T4, Activin B (Homo sapiens (Human), UniProt P09529 293-407).
T4 construct: also called Mature Activin B; mature Activin B
T4 sequence: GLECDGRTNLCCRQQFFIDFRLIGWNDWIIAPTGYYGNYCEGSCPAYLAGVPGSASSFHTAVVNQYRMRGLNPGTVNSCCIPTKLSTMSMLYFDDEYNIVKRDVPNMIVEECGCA
The experiment in a line: ELISA, coated antigen, OD450. Here is the method:
as §1

For assay [5], the target named is T2, Inhibin A. The experiment in a line: ELISA, coated antigen, OD450. This is another data set of the same source.
The target in assay [6] is T4, Activin B. The experiment in a line: ELISA, coated antigen, OD450. This is another data set of the same source.
Assay [7] concerns the target T1, Latent Activin A. The experiment in a line: ELISA dose-response, coated antigen. How it is done:
as §1

Assay [8] concerns the target T3, Mature Activin A. The experiment in a line: ELISA dose-response, coated antigen. How it is done: as §1
Assay [9] addresses T4, Activin B. The experiment in a line: ELISA dose-response, coated antigen. How it is done: as §1
The target in assay [10] is T2, Inhibin A. The experiment in a line: ELISA dose-response, coated antigen (row 'Inhibin'). Here is the method: as §1
For assay [11], the target named is T4, Activin B. The experiment in a line: ELISA, coated antigen, OD450; secondary screen, single OD 450 reading as fold over negative control; below the 1.40-fold cut-off. Here is the method: as §1
Assay [12] has as its target T4, Activin B. The experiment in a line: ELISA dose-response, coated antigen; dose-response ELISA, 1:3 dilutions from 133 nM; weak binding within the tested range. Here is the method: as §1

B1: AB340 (antibody, IgG1, V domains shown)
VH: EVQLVESGGGLVQPGGSLRLSCAASGFTASRNYMSWVRQAPGKGLELVASISGSGDYTYYPDSVKGRFTISRDNAKNSLYLQMNSLRAEDTAVYYCARSPRGPRLLGYYYGMDVWGQGTTVTVSS
VL: DIVMTQSPLSLPVTPGEPASISCRSSRSLVHGSGHNYLHWYLQKPGQSPQLLIYGASTRVAGVPDRFSGSGSGTDFTLKISRVEAEDVGVYYCMQGTQAPRTFGGGTKVEIK
With B1, the “fold-change of OD 450 over negative control (BSA)” value (shortened to “fold-change”) came to 1.9 fold in assay [1], 1.11 fold in [2], 2.33 fold in assay [3] and 1.04 fold in [4]. Besides, the binding result in assay [5] and in assay [6] was “no binding (tested: 1.40-fold over BSA)” each time.

B2: AB843 (antibody, IgG1, V domains shown)
VH: EVQLVQSGAEVKKPGASVKVSCKASGDTSSHSHIHWVRQAPGQGLEWMGWINPRSGATNYAQKLQGRGTMTTDPSTSTAYMELRSLRSDDTAVYYCARDRGGRTNGVGAFDIWGQGTMVTVSS
VL: ESALTQPASVSGSPGQSITISCTGTSGDIGRYNYVSWYQQHPGKAPKLMIYEDIERPSGVSNRFSGSKSGNTASLTISGLQAEDEADYYCQVWDATLDLVFGGGTKLTVL
For the molecule B2, the EC50 in [7] came out at 0.04 nM; in [8], 0.02 nM; in assay [9], 0.03 nM; in [10], 0.05 nM. The “fold-change” value in assay [1] was 24.9 fold; in assay [2], 22.9 fold; in [3], 24.7 fold; in assay [4], 24.6 fold.

B3: AB852 (antibody, IgG1, V domains shown)
VH: QVTLRESGPALVKPTQTLTLTCTVSGFSLSDTRWGVNWIRQPPGKALEWIGYINDRGTTDYNSALKSRLTISKDTSKNQVVLTMTNMDPVDTATYYCAHTLHTREFVGMDVWGQGTTVTVSS
VL: DIVMTQSPDSLAVSLGERATINCKSSQSVLDTSTNRNYLAWYQQKPGQPPKLLIYGASIRAGGVPDRFSGSGSGTDFTLTISSLQAEDVAVYYCQQYETWPWTFGGGTKVEIK
B3: the “fold-change” value in assay [11] came to 0.88 fold; in assay [1] it was 6.01 fold; in [2], 0.94 fold; in [3] it was 8.73 fold. Moreover, the EC50 in assay [7] is 40.9 nM; in [8] it was 2.73 nM; in [12], 21.3 nM.

B4: AB326 (antibody, IgG1, V domains shown)
VH: QVQLVQSGAEVKKPGASVKVSCKVSGYTFTSSAISWVRQAPGKGLEWMGGIYPGSGHTIYAQKFQGRVTMTEDTSTDTAYMELSSLKSEDTAVYYCAREGDIFVMDVWGLGTAVTVSS
VL: DIQMTQSPSSVSASVGDRVTITCRASMDIRNDLAWYQQKPGKAPKLLIYDASKLETGVPSRFSGSGSGTDFTLTISSLQPEDFANYYCQQAKSFPPTFGGGTKVEIK
On to B4, for which the “fold-change” value came out at 5.91 fold in assay [1], 8.53 fold in assay [2], 6.01 fold in assay [3] and 0.58 fold in [4]. In [6], the binding result is recorded as “no binding (tested: 1.40-fold over BSA)”.

B5: AB347 (antibody, IgG1, V domains shown)
VH: QVQLQESGPGLVKPSQTLSLTCTVSGFPLSTSRMGVNWIRQPPGKGLEWIGYINPSGATDYNPSLKSRVTMSVDTSKNQFSLKVNSVTAADTAVYYCARAGYPDVWGKGTTVTVSS
VL: EIVMTQSPATLSLSPGERATLSCRASQNIGHSLAWYQQKPGQAPRLLIYGASIRAPGIPARFSGSGSGTDFTLTISSLEPEDFAVYYCQQYITWPSTFGGGTKVEIK
As to B5, the values for the EC50 in assay [7], in [8] and in assay [9] were 2.46 nM, 0.72 nM and 0.95 nM, respectively. Also, the “fold-change” value was determined as 10.2 fold in assay [1], 0.74 fold in [2], 10.2 fold in assay [3] and 2.54 fold in [4].

B6: AB350 (antibody, IgG1, V domains shown)
VH: QVQLQESGPGLVKPSQTLSLTCTVSGVSLSDARMGVNWIRQPPGKGLEWIGYVSTTGTTDYNPSLKSRVTMSVDTSKNQFSLKVNSVTAADTAVYYCARAGYPDVWGKGTLVTVSS
VL: EIVMTQSPATLSLSPGERATLSCRASESVRSNLAWYQQKPGQAPRLLIYGASNRASGIPARFSGSGSGTDFTLTISSLEPEDFAVYYCQQYHTWPPWAFGGGTKVEIK
In the case of B6, the “fold-change” value in assay [1] turned out to be 7.33 fold; in [2] it was 0.65 fold; in [3], 10.6 fold; in assay [4], 0.74 fold. The binding result in assay [5] and in [6] was “no binding (tested: 1.40-fold over BSA)” throughout.

B7: AB353 (antibody, IgG1, V domains shown)
VH: QVQLQESGPGLVKPSQTLSLTCTVSGLSLSNAKMGVNWIRQPPGKGLEWIGYVSTTGTTDYNPSLKSRVTMSVDTSKNQFSLKVNSVTAADTAVYYCARAGYPDVWGKGTTVTVSS
VL: EIVMTQSPATLSLSPGERATLSCRASQNVYTNLAWYQQKPGQAPRLLIYGASARASGIPARFSGSGSGTDFTLTISSLEPEDFAVYYCLQYGSSPPLFGGGTKVEIK
Take B7: the “fold-change” value in [1] was determined as 4.4 fold; in assay [2] it was 0.61 fold; in [3], 8.98 fold; in assay [4] it was 0.72 fold. Further, the binding result in assay [5] and in assay [6] was “no binding (tested: 1.40-fold over BSA)” in each case.

B8: AB731 (antibody, IgG1, V domains shown)
VH: QVQLQQPGTELVKPGASVKLSCKASGYTFTSYWMHWVKQRPGQGLEWIGNINPSNGGTNYNEKFKSKATLTVDKSSSTAYMQLSSLTSEDSAVYYCSITTVVAYWYFDVWGTGTTVTVSS
VL: ENVLTQSPAIMSASPGEKVTISCSASSSVSYMYWYQQKPGSSPKPWIFRTYNLASGVPARFSGSGSGTSYSLTISNMEAEDAATYYCQQRSSYPWTFGGGTKLEIK
notes: also called clone 731
In the case of B8, the results for the EC50 in assay [7], in [8] and in [9] were 0.87 nM, 0.42 nM and 0.49 nM, respectively.

B9: AB854 (antibody, IgG1, V domains shown)
VH: EVQLVQSGAEVKKPGASVKVSCKASGYTFPSHYISWVRQAPGQGLEWMGGMNPITGHTIYAQKLQGRGTMTTDPSTSTAYMELRSLRSDDTAVYYCARDMRYDILPGRSYYYGMDVWGQGTTVTVSS
VL: ESALTQPASVSGSPGQSITISCTGTTGSIASNYVSWYQQHPGKAPKLMIYDTTNRPPGVSNRFSGSKSGNTASLTISGLQAEDEADYYCQSTERGRSDVIFGGGTKLTVL
notes: also called clone 854
As to B9, the values for the EC50 in [7], in assay [8] and in [9] were 1 nM, 0.03 nM and 0.27 nM, respectively.

These data come from patent publication US20250270304A1 (PHENOMIC AI, published 2025).
